Patent US20080167229A1 (Dana-Farber, published 2008)

What was measured:
[1] = target: T1, endogenous USP1, full length (HeLa and 293T cells) (human, UniProt O94782 1-785); assay: anti-Flag immunoprecipitation from transiently transfected 293T cells, anti-USP1 immunoblot
T1 construct: Full length endogenous protein detected in immunoprecipitates; also called Ubiquitin Specific Protease 1
T1 sequence: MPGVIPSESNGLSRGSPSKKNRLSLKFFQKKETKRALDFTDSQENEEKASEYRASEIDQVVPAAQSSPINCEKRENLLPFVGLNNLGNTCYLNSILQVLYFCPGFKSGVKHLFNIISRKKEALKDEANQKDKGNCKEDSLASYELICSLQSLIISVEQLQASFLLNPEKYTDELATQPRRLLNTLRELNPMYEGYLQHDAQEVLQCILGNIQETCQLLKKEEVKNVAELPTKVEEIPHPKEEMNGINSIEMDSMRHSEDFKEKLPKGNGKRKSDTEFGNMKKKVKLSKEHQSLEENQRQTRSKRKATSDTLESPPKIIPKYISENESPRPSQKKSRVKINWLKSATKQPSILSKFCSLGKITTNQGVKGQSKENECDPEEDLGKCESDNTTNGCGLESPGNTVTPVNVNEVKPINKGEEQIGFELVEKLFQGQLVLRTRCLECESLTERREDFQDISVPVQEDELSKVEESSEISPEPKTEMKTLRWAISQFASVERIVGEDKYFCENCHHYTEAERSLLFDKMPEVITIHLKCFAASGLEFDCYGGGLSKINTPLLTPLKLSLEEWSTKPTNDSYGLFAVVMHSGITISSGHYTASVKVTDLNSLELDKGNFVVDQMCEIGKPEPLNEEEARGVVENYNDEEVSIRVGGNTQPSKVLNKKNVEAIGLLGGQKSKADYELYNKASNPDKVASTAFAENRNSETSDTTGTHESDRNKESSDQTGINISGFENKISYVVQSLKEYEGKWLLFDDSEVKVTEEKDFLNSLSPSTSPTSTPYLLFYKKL
Protocol: (§1) The Flag-tagged proteins were immunoprecipitated from cell lysates using anti-Flag antibodies. The immunoprecipitates were analyzed using the indicated antibodies. […] The concentrations of all proteins were 10 nM.

[2] = target: T2, N-terminal cleavage product of endogenous USP1 (human, UniProt O94782 1-671); assay: as above
T2 construct: the end at 671 is inferred from that; also called N-terminal USP1; N-terminal USP1 fragment
T2 sequence: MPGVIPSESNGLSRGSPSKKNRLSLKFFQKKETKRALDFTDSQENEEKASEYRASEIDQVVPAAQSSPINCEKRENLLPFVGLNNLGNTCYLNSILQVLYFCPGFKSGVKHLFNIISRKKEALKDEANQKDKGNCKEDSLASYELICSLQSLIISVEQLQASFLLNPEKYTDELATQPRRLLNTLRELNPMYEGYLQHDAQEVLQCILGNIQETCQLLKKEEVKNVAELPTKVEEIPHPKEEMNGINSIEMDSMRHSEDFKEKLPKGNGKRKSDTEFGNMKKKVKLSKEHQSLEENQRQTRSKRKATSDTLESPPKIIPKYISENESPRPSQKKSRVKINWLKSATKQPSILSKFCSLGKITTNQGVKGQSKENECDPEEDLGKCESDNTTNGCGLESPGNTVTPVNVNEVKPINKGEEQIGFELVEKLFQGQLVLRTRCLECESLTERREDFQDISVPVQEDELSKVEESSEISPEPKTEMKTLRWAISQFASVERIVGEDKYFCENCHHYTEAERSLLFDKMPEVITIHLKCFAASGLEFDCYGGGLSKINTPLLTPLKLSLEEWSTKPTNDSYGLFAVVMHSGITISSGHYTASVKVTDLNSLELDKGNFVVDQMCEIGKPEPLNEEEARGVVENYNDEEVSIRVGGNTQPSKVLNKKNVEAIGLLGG
Protocol: as §1

B1: Flag-tagged UAF1-Δ507-546 expressed in 293T cells (other)
chain: MAAHHRQNTAGRRKVQVSYVIRDEVEKYNRNGVNALQLDPALNRLFTAGRDSIIRIWSVNQHKQDPYIASMEHHTDWVNDIVLCCNGKTLISASSDTTVKVWNAHKGFCMSTLRTHKDYVKALAYAKDKELVASAGLDRQIFLWDVNTLTALTASNNTVTTSSLSGNKDSIYSLAMNQLGTIIVSGSTEKVLRVWDPRTCAKLMKLKGHTDNVKALLLNRDGTQCLSGSSDGTIRLWSLGQQRCIATYRVHDEGVWALQVNDAFTHVYSGGRDRKIYCTDLRNPDIRVLICEEKAPVLKMELDRSADPPPAIWVATTKSTVNKWTLKGIHNFRASGDYDNDCTNPITPLCTQPDQVIKGGASIIQCHILNDKRHILTKDTNNNVAYWDVLKACKVEDLGKVDFEDEIKKRFKMVYVPNWFSVDLKTGMLTITLDESDCFAAWVSAKDAGFSSPDGSDPKLNLGGLLLQALLEYWPRTHVNPMDEEENEVNHVNGEQENRVQKGNGYPQWVIDITVDKNMPKFNKIPFYLQPHASSGAKTLKKDRLSASDMLQVRKVMEHVYEKIINLDNESQTTSSSNNEKPGEQEKEEDIAVLAEEKIELLCQDQVLDPNMDLRTVKHFIWKSGGDLTLHYRQKS
notes: Deletion of aa 507-546 as printed; not shown: Flag tag
Q: Does B1 bind [1]?
A: Result: no binding

Q: Does B1 bind [2]?
A: Result: no binding
